Among the data in PMC6135609, “Poly(ADP-ribose) polymerase 1 searches DNA via a ‘monkey bar’ mechanism” are binding result and Kd values, retold here.

A value given as a limit tells only on which side of the number the result lay.

Details in all cases: protein: recombinant; (Ni-NTA; pET28a); blunt
The target of one series is PARP1 dWGR (human, UniProt P09874 1-517+=ALAGSGSGSGSGSGLALLLAGSGSGSGSGAAL+655-1014, internal_change). The series can be described thus: stopped-flow fluorescence anisotropy; k1 similar to WT; Scheme 2 dissociation, no ternary complex; 50 mM Tris-HCl pH 7.5, 50 mM NaCl, 1 mM MgCl2, 0.1 mM EDTA, 0.01% IGEPAL, 20 C. For orientation: Fluorescence polarisation rises when a labelled molecule tumbles more slowly, as on binding a larger partner.

Another series has as its target PARP1 WT (human, UniProt P09874 1-1014). The series can be described thus: stopped-flow fluorescence anisotropy; kinetic Kd; k1 3.1 nM-1 s-1, k-1 <10 s-1; 50 mM Tris-HCl pH 7.5, 50 mM NaCl, 1 mM MgCl2, 0.1 mM EDTA, 0.01% IGEPAL, 20 C.
The next series has as its target PARP1 dZn3 (human, UniProt P09874 1-215+=ALAGSGSGSGSGSGLALLLAGSGSGSGSGAAL+367-1014, internal_change). The series can be described thus: stopped-flow fluorescence anisotropy; k1 similar to WT; Scheme 3 dissociation; 50 mM Tris-HCl pH 7.5, 50 mM NaCl, 1 mM MgCl2, 0.1 mM EDTA, 0.01% IGEPAL, 20 C.
For a further series, the target named is PARP1 dZn2 (human, UniProt P09874 1-96+=ALAGSGSGSGSGSGLALLLAGSGSGSGSGAAL+207-1014, internal_change). The description is as above.
A further series has as its target PARP1 dZn1 (human, UniProt P09874 97-1014, del2-96). The description is as above.

Chain of PARP1 dZn2 (P09874 other isoform, or with tags, fused parts or gaps): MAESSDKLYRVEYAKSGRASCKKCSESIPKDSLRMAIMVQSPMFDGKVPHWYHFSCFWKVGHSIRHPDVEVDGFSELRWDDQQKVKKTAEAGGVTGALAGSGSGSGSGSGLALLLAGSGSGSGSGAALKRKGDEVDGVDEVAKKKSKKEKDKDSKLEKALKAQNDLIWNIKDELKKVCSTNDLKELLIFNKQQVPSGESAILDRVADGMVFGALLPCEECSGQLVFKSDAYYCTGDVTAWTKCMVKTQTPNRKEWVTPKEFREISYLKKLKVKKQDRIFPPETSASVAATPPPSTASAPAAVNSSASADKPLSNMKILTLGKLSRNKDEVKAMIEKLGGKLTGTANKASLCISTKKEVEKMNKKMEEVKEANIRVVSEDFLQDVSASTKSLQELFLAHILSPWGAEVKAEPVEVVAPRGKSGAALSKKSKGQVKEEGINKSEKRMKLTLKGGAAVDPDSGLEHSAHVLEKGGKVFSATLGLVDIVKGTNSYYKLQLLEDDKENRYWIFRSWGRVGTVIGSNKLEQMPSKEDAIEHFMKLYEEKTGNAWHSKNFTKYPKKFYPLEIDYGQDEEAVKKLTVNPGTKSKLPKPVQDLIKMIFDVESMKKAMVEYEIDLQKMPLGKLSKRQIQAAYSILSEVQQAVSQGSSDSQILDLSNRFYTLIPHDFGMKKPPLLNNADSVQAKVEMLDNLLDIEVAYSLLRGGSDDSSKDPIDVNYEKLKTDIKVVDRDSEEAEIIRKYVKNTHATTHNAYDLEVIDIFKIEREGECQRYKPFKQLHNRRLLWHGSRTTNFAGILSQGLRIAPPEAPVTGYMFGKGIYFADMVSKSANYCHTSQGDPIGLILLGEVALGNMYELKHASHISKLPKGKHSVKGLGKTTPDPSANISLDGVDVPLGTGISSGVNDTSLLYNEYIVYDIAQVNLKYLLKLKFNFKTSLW
Chain of PARP1 WT (P09874 whole entry): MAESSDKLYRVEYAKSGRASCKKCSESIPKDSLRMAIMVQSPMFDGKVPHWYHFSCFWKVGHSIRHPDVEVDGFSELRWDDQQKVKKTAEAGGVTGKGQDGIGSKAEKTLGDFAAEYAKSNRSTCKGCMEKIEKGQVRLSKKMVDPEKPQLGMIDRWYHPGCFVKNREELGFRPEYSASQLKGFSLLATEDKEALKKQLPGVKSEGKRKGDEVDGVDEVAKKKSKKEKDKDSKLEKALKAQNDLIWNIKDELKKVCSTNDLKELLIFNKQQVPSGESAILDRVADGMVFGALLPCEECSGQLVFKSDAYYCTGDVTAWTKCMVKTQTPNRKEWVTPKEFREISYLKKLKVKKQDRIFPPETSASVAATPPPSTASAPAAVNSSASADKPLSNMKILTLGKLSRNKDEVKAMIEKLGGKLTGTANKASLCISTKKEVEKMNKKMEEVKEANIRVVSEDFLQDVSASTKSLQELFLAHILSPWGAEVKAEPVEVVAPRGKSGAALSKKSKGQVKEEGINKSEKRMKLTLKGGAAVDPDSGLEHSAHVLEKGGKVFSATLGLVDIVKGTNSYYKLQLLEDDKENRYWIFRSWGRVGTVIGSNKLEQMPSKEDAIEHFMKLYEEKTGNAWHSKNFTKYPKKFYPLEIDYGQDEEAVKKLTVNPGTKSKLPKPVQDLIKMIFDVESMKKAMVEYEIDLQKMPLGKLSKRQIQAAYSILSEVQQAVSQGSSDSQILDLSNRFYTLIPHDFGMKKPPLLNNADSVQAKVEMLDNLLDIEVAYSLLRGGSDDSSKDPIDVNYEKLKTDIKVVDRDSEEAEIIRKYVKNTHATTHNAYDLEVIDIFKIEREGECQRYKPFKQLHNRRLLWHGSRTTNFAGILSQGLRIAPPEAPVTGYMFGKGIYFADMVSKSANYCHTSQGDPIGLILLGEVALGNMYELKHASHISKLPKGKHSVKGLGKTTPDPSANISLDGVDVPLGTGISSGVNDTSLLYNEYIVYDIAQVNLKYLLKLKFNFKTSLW
Chain of PARP1 dWGR (P09874 other isoform, or with tags, fused parts or gaps): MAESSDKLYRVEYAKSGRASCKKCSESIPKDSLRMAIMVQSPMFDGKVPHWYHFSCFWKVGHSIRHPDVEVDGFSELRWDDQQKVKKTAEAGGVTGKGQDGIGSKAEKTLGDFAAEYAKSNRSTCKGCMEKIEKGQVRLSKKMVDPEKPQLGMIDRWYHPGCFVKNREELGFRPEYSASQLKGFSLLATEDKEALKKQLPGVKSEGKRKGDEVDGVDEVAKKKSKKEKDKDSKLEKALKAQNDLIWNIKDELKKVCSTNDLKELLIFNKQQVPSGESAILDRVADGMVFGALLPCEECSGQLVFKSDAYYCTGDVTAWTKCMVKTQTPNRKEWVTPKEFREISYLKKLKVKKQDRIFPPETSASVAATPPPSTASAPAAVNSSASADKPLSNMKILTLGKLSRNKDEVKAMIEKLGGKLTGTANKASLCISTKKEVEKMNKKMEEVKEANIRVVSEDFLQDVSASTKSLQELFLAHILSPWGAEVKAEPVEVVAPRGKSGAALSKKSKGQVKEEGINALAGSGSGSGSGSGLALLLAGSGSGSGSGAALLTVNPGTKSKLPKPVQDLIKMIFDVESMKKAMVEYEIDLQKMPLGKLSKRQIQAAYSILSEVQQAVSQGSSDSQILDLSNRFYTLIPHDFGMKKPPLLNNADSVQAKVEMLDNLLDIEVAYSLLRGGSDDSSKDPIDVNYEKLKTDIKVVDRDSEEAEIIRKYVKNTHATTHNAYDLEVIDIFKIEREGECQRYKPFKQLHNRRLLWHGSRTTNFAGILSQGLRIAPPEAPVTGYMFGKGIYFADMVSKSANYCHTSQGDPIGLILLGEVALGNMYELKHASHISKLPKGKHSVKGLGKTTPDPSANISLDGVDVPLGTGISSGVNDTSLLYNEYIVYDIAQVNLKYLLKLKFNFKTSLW
Chain of PARP1 dZn1 (P09874 97-1014, stated change not applied): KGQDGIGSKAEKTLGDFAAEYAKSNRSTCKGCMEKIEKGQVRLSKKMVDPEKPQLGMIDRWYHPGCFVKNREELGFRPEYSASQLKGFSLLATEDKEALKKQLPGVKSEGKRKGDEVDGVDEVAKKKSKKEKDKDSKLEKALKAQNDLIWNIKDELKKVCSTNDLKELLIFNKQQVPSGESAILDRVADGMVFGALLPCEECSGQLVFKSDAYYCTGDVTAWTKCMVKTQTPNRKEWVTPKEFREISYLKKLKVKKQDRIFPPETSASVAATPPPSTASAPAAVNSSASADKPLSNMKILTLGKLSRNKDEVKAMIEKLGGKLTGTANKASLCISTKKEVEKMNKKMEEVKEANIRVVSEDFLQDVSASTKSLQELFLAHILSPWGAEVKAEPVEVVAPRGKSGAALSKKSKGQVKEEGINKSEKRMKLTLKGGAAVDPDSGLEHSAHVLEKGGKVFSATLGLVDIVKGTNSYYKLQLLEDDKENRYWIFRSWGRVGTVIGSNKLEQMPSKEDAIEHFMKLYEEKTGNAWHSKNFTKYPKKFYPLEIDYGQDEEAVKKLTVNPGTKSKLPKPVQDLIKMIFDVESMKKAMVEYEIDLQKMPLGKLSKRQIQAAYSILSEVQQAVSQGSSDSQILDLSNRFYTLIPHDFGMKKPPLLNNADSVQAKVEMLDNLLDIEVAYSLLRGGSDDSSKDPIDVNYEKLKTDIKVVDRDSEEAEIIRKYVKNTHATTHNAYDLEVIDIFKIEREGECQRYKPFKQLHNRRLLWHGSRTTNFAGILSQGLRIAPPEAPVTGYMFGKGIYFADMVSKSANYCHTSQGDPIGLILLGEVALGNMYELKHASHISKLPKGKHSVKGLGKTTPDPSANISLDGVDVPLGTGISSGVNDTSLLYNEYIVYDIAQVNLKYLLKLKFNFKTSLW
Chain of PARP1 dZn3 (P09874 other isoform, or with tags, fused parts or gaps): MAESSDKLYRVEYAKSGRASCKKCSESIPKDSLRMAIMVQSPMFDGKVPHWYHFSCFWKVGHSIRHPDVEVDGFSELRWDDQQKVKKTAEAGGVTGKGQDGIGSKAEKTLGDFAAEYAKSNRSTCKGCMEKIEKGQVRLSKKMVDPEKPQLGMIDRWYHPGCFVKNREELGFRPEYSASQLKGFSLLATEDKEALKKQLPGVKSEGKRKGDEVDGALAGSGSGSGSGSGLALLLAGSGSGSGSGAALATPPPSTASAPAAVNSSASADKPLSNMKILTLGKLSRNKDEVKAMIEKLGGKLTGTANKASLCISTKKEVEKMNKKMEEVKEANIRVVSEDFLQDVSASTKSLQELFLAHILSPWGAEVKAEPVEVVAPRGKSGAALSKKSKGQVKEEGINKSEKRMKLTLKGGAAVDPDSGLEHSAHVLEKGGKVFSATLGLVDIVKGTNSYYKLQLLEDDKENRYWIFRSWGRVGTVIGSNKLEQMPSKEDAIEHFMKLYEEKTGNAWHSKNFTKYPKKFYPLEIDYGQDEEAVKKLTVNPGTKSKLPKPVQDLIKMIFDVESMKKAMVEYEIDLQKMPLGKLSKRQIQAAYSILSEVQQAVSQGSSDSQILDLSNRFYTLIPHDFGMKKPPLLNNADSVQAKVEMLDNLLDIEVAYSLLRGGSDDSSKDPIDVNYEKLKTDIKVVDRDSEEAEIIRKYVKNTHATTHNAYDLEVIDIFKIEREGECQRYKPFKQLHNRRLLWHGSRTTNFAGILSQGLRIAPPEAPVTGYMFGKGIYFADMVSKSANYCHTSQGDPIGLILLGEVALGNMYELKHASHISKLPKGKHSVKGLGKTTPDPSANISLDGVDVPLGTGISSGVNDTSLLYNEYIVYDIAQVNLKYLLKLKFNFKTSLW

B1: p18mer* (labeled DSB model) (dsDNA)
DNA 1: GGGTTGCGGCCGCTTGGG
DNA 2: CCCAAGCGGCCGCAACCC
modifications: 5'-phosphate
A word on the Kd: it is the equilibrium constant for the complex coming apart. For B1, the binding result with PARP1 dWGR, with PARP1 dZn3, with PARP1 dZn2 and in the series with PARP1 dZn1 was “binds” in each case. The Kd in the series with PARP1 WT was below 3 nM.
